Results on one protein are retold here after publication PMC4234702 (Cellular and molecular life sciences : CMLS, 2014).

This series concerns the molecule itself. Put plainly: crystal structure.

B1: cell-free expressed Δ7 DgkA (thermostabilized mutant of diacylglycerol kinase) (enzyme, Escherichia coli)
chain: ANNTTGFTRIIKAAGYSWKGLRAAWINEAAFRQEGVAVLLCVVIAAWLDVDAVTRVLLISSVMLVMIVELLNSAIEAVVDRIGSEYHELSGRAKDLGSAAVLIAIIDAVITWAILLWSHFG
As a reminder, the stoichiometry N is the number of molecules, sites or subunits per partner or assembly. For the protein B1, the “stoichiometry N” value turned out to be 3.
